Measured values reported in patent US20240043540A1 (Innovent, published 2024).

T1: recombinant cynomolgus monkey B7H3 protein (cynomolgus monkey, UniProt Q7TPB4 26-248 (rat entry))
T1 construct: also called SINO BIOLOGICAL Catalog No. 90806-C02H-50
T1 chain: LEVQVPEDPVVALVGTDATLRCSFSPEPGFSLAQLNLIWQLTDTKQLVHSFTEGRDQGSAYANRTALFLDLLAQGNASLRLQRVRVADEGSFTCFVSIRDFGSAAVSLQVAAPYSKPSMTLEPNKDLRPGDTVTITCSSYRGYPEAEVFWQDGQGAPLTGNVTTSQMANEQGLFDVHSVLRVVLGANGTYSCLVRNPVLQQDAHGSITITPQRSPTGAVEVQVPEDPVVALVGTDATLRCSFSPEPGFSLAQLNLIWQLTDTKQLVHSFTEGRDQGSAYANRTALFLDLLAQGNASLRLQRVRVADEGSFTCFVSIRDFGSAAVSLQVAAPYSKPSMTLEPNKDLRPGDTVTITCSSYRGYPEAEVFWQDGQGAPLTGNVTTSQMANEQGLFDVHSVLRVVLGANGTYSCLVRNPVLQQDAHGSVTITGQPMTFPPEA

T2: recombinant human 4Ig-B7H3 protein (human, UniProt Q5ZPR3 29-461)
T2 construct: also called human B7H3 protein; SINO BIOLOGICAL Catalog No. 11188-H08H
T2 sequence: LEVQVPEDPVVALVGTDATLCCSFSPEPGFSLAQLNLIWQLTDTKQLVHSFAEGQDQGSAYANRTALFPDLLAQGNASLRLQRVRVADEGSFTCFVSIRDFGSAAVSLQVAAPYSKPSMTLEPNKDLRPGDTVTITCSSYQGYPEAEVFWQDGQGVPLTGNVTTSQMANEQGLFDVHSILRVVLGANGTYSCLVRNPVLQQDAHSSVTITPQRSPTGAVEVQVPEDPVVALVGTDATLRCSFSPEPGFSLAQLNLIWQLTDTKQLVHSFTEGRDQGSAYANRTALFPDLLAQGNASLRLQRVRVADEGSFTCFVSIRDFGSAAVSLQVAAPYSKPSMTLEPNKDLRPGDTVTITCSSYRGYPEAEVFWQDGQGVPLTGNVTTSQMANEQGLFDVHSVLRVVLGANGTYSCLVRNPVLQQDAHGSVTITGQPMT

T3: recombinant human 2Ig-B7H3 protein (human, UniProt Q5ZPR3 29-466)
T3 construct: Bought soluble recombinant protein; also called ACRO Catalog No. B73-H52E2
T3 sequence: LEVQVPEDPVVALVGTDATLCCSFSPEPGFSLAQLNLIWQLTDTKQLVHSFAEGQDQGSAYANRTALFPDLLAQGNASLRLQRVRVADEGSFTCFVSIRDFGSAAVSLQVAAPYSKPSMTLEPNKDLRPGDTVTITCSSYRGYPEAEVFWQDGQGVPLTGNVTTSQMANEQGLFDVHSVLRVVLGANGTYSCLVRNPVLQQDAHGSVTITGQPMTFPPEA

T4: human 2Ig-B7H3 overexpressed on CHO-S cells (CHOS-hB7H3-2Ig) (human, UniProt Q5ZPR3 29-534)
T4 construct: also called cells overexpressing human 2Ig-B7H3
T4 sequence: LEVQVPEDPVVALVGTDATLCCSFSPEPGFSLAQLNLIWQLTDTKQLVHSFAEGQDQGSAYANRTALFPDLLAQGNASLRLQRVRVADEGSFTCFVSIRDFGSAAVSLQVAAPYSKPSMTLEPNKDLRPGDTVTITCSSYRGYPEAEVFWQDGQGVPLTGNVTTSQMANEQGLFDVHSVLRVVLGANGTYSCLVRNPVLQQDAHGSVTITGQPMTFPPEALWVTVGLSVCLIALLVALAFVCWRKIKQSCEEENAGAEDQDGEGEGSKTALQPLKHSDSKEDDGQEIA

T5: human 4Ig-B7H3 overexpressed on CHO-S cells (CHOS-hB7H3-4Ig) (human, UniProt Q5ZPR3 29-534)
T5 construct: The entry includes the signal peptide; also called CHO-hB7H3-4Ig; cells overexpressing human 4Ig-B7H3
T5 sequence: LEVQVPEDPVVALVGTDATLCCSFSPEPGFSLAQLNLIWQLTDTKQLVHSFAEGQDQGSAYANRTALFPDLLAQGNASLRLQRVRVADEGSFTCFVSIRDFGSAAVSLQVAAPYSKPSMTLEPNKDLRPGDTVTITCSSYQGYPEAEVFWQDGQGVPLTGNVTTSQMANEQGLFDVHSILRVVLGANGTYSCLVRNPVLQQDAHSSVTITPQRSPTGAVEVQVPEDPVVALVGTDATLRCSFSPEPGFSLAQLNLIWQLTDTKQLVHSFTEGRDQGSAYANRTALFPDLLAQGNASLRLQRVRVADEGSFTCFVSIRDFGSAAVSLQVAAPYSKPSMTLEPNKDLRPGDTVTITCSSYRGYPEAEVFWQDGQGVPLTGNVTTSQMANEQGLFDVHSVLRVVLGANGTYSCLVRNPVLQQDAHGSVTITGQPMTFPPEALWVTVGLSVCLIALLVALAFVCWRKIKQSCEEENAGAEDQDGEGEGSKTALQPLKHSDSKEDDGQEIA

T6: cynomolgus monkey B7H3 expressed on CHO cells (CHO-cynoB7H3) (cynomolgus monkey, UniProt Q7TPB4 26-316 (rat entry))
T6 chain: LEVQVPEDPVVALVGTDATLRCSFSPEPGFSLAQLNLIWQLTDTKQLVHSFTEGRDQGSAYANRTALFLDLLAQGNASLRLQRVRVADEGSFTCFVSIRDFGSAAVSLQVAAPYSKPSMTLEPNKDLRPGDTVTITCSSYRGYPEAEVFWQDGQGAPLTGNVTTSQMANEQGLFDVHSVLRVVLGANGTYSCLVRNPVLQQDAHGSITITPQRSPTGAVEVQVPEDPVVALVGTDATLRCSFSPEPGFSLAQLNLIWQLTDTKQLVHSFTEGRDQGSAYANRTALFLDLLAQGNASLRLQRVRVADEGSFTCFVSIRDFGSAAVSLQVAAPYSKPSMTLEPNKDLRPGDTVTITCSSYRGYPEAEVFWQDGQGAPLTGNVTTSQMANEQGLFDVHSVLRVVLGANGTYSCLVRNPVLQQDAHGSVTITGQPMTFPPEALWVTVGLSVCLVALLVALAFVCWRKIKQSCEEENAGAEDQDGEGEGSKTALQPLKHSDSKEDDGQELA

B1: Hz19A2 humanized antibody (antibody, human IgG1, kappa, V domains shown)
VH: QVQLVQSGAEVKKPGASVKVSCKASGYIFTSYWIHWVRQAPGQGLEWMGRIYPGTESTFYNEKFKGRVTMTRDTSTSTVYMELSSLRSEDTAVYYCHFITASDWYFDVWGQGTLVTVSS
VL: EIVLTQSPATLSLSPGERATLSCSVSSSVQSNYLYWYQQKPGQAPRLLIYGTSNLASGIPARFSGSGSGTDFTLTISSLEPEDFAVYYCYQWSSYPFTFGQGTKLEIKR
B2: Ch20G5 chimeric antibody (antibody, human IgG1, kappa, V domains shown)
VH: EVQLQQSVPELVKPGASVKISCKTSGYTFTEYIMHWVKQSHGKNLEWIGGINPNNGGTTYNQKFKDKATLTVDKSSSTAYMELHNLTSEDSAVYYCTRRTPPWHFAVWGAGTSLTVSS
VL: DIVLTQSPTIMSASPGEKVTMTCSASSSVSYIHWYQQKSGTSPKRWIFDTSRLASGVPARFSGSGSGTSYSLTISSMEAEDAATYYCQQWSSAPLTFGTGTTLELKR
B3: Ch19A2 chimeric antibody (antibody, human IgG1, kappa, V domains shown)
VH: EVQLQQSGAELVRPGASVKLSCKTSGYIFTSYWIHWIKQRSGQGLEWIARIYPGTDSTFYNEKFKGRATLTADKSSSTVYLQLNSLKSEDSAVYFCHFITASDWYFDVWGAGTTVTVSS
VL: DIVLTQSPAIMSASPGEKVTLTCSVSSSVNSNYLYWYQQKPGSSPKLWIYGTSNLASGVPARFSGSGSGPSYSLTISSMEAEDAASYFCYQWSSYPFTFGSGTKLEIKR
B4: 19A2 (hybridoma clone antibody) (antibody, V domains shown)
VH: EVQLQQSGAELVRPGASVKLSCKTSGYIFTSYWIHWIKQRSGQGLEWIARIYPGTDSTFYNEKFKGRATLTADKSSSTVYLQLNSLKSEDSAVYFCHFITASDWYFDVWGAGTTVTVSS
VL: DIVLTQSPAIMSASPGEKVTLTCSVSSSVNSNYLYWYQQKPGSSPKLWIYGTSNLASGVPARFSGSGSGPSYSLTISSMEAEDAASYFCYQWSSYPFTFGSGTKLEIK
B5: MGA271 (positive control antibody) (antibody, V domains shown)
VH: EVQLVESGGGLVQPGGSLRLSCAASGFTFSSFGMHWVRQAPGKGLEWVAYISSDSSAIYYADTVKGRFTISRDNAKNSLYLQMNSLRDEDTAVYYCGRGRENIYYGSRLDYWGQGTTVTVSS
VL: DIQLTQSPSFLSASVGDRVTITCKASQNVDTNVAWYQQKPGKAPKALIYSASYRYSGVPSRFSGSGSGTDFTLTISSLQPEDFATYYCQQYNNYPFTFGQGTKLEIK
notes: also called Enoblituzumab
B6: Hz20G5 humanized antibody (antibody, human IgG1, kappa, V domains shown)
VH: QVQLVQSGAEVKKPGASVKVSCKASGYTFTEYIMHWVRQAPGQRLEWMGGINPGTGGTTYNQKFKDRVTITVDTSASTAYMELSSLRSEDTAVYYCTRRTPPWHFAVWGQGTLVTVSS
VL: DIQLTQSPSFLSASVGDRVTITCSASSSVSYIHWYQQKPGKAPKRWIYDTSRLASGVPSRFSGSGSGTEFTLTISSLQPEDFATYYCQQWSSAPLTFGGGTKVEIKR

How the values were obtained:
[1] = biological target: T1, recombinant cynomolgus monkey B7H3 …; assay: bio-layer interferometry (ForteBio), as in Example 3
Method: (§1) Briefly, AMQ (Pall, 1506091) (for sample detection) or AHQ (Pall, 1502051) (for positive control detection) sensors were equilibrated offline in an assay buffer for 30 min, and were equilibrated online for 60 s to establish a baseline. The purified antibodies obtained as described above were loaded online onto an AHQ sensor (ForteBio) for the ForteBio affinity assay. The sensor with the loaded antibodies was then exposed to the antigens (including human 4Ig-B7H3, human 2Ig-B7H3 (ACRO, Catalog No. B73-H52E2) and cynomolgus monkey B7H3 (SINO BIOLOGICAL, Catalog No. 90806-C02H-50)) before transferring the sensor to the assay buffer for dissociation rate measurement. The KD values were analyzed using ForteBio analysis software.
(§2) The binding affinity of the humanized antibodies obtained in Example 4 for the antigens (human B7H3 and cynomolgus monkey B7H3) was determined by ForteBio assay as described in Example 3, which was expressed as an equilibrium dissociation constant (KD).

[2] = biological target: T2, recombinant human 4Ig-B7H3 protein; assay: as above
Method: as §1, §2

[3] = biological target: T3, recombinant human 2Ig-B7H3 protein; assay: as above
Method: as §1, §2

[4] = biological target: T4, human 2Ig-B7H3 overexpressed on CHO-S …; assay: FACS (flow cytometry, MFI) on CHO-S cells overexpressing human 2Ig-B7H3, PE-conjugated anti-human Fc detection; panel 'Cell-level affinity of CHOS hB7H3(2Ig)'
Method: (§3) 1) CHOS-hB7H3-4Ig, CHOS-hB7H3-2Ig, and CHOS-cyno B7H3 cells were diluted with a PBS solution to 2×10⁶ cells/mL, and added to a U-bottom 96-well plate at 100 μL/well. Three-fold serially diluted antibodies were added.
(§4) 2) The above mixture was incubated on ice for 30 min. The cell suspension was centrifuged at 400 g for 5 min to remove the supernatant, and the cells were washed with a PBS solution to remove the unbound antibodies. 100 μL of the solution of PE-conjugated anti-human Fc antibody (SouthernBiotech) diluted at a ratio of 1:200 was added to each well, and the cells were incubated in the dark on ice for 30 min. Then the cell suspension was centrifuged at 400 g for 5 min to remove the supernatant. The cells were washed with PBS twice to remove the unbound PE-conjugated anti-human Fc antibody. Then the cells were resuspended with 100 μL of PBS, and the binding of the antibody to cells was assayed by FACS.

[5] = biological target: T5, human 4Ig-B7H3 overexpressed on CHO-S …; assay: FACS (flow cytometry, MFI) on CHO-S cells overexpressing human 4Ig-B7H3, PE-conjugated anti-human Fc detection; panel 'Cell-level affinity of CHOS hB7H3(4Ig)'
Method: as §3, §4

[6] = biological target: T1, recombinant cynomolgus monkey B7H3 …; assay: bio-layer interferometry (ForteBio), antibody loaded on sensor, antigen in solution
Method: (§5) The equilibrium dissociation constant (KD) for binding of the antibodies of the present invention to human B7H3 was determined by bio-layer interferometry (ForteBio). The ForteBio affinity assay was conducted according to the method (Estep, P et al., High throughput solution Based measurement of antibody-antigen affinity and epitope binding. mAbs, 2013.5(2): 270-8) known in the art.
as §1

[7] = biological target: T2, recombinant human 4Ig-B7H3 protein; assay: as above
Method: as §5, §1

[8] = biological target: T3, recombinant human 2Ig-B7H3 protein; assay: as above
Method: as §5, §1

[9] = biological target: T6, cynomolgus monkey B7H3 expressed on CHO …; assay: flow cytometry, hybridoma supernatant on CHO-cynoB7H3 cells
[10] = biological target: T1, recombinant cynomolgus monkey B7H3 …; assay: bio-layer interferometry (ForteBio), hybridoma antibody
[11] = biological target: T2, recombinant human 4Ig-B7H3 protein; assay: as above

Binder | Kd [1] | Kd [2] | Kd [3] | EC50 [4] | EC50 [5] | Kd [6] | Kd [7] | Kd [8] | binding result [9] | Kd [10] | Kd [11]
B1 | 0.968 nM | 0.601 nM | 10.4 nM | 138 nM | 8.51 nM |  |  |  |  |  | 
B2 |  |  |  |  |  | 0.713 nM | 0.236 nM | 3.18 nM |  |  | 
B3 |  |  |  |  |  | 0.59 nM | 0.362 nM | 5.74 nM |  |  | 
B4 |  |  |  |  |  |  |  |  | binds | 0.977 nM | 0.987 nM
B5 | 1.87 nM | 0.939 nM | 782 nM | 100 nM | 8.54 nM | 1.66 nM | 0.636 nM | 187 nM |  |  | 
B6 |  | 0.371 nM | 6.3 nM | 7.54 nM | 6.28 nM |  |  |  |  |  | 
